The target of assay [1] is T1, recombinant human GPC3 protein (Homo sapiens, UniProt P51654).
T1 construct: human glypican 3, recombinant protein from R&D Systems; source: bought: R&D Systems
As to the kind of experiment: ELISA; plates coated with recombinant human GPC2, GPC1 and GPC3; mouse hybridoma supernatant containing 1 μg/ml of each mAb; detected with goat anti-mouse IgG-HRP. The following applies: one partner purified. A general note: An ELISA detects its analyte on a solid surface through an enzyme-linked reagent.

The target in assay [2] is T2, recombinant human GPC1 protein (Homo sapiens, UniProt P35052).
T2 construct: human glypican 1, recombinant protein from R&D Systems; source: bought: R&D Systems
T2 sequence (P35052 24-530): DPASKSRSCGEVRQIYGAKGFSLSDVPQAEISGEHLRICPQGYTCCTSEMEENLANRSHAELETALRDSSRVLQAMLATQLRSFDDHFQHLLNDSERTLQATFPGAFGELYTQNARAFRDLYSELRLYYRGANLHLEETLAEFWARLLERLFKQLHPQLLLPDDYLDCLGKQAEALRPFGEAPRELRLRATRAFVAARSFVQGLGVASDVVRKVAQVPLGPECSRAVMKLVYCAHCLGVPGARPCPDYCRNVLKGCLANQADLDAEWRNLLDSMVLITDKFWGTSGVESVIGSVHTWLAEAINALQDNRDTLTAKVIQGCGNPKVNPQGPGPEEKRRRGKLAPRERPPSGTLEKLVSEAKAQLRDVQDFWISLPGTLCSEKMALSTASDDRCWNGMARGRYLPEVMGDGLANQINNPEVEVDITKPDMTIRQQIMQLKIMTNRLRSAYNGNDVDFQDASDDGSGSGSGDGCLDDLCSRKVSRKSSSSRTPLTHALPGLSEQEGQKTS
The description is as above. The following applies: one partner purified.

For assay [3], the target named is T3, recombinant human GPC4 protein (Homo sapiens, UniProt O75487).
T3 construct: human glypican 4, recombinant protein from R&D Systems; source: bought: R&D Systems
T3 sequence (O75487 19-529): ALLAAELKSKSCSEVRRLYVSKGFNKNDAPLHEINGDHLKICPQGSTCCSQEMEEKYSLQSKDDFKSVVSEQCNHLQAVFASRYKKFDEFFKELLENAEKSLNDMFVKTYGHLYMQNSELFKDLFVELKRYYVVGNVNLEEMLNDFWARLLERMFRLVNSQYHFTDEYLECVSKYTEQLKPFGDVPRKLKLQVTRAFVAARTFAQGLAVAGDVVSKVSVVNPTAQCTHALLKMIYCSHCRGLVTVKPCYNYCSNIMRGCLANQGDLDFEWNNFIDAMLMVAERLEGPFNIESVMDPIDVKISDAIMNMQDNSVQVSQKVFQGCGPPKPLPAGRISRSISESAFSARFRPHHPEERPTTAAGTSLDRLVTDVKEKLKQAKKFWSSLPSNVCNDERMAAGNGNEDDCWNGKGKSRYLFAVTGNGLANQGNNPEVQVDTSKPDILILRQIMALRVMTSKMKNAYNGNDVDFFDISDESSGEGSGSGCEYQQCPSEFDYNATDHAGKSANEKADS
As to the kind of experiment: ELISA; CT3 at 1 μg/ml on human GPC1 through GPC6 and mouse GPC2 proteins (R&D Systems) and GPC2 exon 3-hFc; detected with goat anti-mouse IgG-HRP. The following applies: both partners purified.

The target of assay [4] is T4, recombinant human GPC5 protein (Homo sapiens, UniProt P78333).
T4 construct: human glypican 5, recombinant protein from R&D Systems; source: bought: R&D Systems
T4 sequence (P78333 25-572): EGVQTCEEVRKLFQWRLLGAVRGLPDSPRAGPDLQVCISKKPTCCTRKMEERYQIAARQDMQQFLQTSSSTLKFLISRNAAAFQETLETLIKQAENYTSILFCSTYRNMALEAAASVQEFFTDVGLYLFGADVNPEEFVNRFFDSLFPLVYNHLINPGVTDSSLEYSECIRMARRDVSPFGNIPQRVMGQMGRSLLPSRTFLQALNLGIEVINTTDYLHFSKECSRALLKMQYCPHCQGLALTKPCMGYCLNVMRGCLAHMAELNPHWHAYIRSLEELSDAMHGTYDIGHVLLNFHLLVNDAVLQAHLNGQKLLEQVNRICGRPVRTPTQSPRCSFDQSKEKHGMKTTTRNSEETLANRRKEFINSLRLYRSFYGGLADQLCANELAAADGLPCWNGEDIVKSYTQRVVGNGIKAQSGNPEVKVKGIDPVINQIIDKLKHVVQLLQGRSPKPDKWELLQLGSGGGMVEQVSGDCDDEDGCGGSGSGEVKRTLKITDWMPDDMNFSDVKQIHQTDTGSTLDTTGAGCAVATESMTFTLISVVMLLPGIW
Described as above. The following applies: both partners purified.

Assay [5] addresses T5, recombinant human GPC6 protein (Homo sapiens, UniProt Q9Y625).
T5 construct: human glypican 6, recombinant protein from R&D Systems; source: bought: R&D Systems
The assay is described as above. The following applies: both partners purified.

The target in assay [6] is T6, human GPC2 exon3-hFc protein (Homo sapiens).
T6 construct: human glypican 2, the stretch encoded by exon 3 (of transcript GPC2-201); also called recombinant exon 3 fragment of GPC2; exon 3 of GPC2; source: cloned into the pVRC8400 expression plasmid
T6 chain: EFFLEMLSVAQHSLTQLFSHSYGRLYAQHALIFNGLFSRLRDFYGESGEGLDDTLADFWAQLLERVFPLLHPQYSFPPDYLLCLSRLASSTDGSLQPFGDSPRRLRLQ
The assay is described as above. The following applies: both partners purified.

For the next assay, the target named is T7, GPC2 exon 3 peptide 17 (Homo sapiens).
T7 construct: human glypican 2, 18-residue peptide no; 17 of the overlapping library (9 residues overlap), in exon 3; source: synthetic peptide (Genscript)
T7 chain: AQLLERVFPLLHPQYSFP
As to the kind of experiment: ELISA; single 18-residue peptides at 5 μg/ml in PBS coated overnight; 1 μg/ml CT3; detected with goat anti-mouse IgG-HRP. The following applies: both partners purified.

The target in the next assay is T8, GPC2 exon 3 peptide 20 (Homo sapiens).
T8 construct: human glypican 2, 18-residue peptide no; 20 of the overlapping library (9 residues overlap), in exon 3; source: synthetic peptide (Genscript)
T8 chain: LASSTDGSLQPFGDSPRR
Described as above. The following applies: both partners purified.

For another assay, the target named is T9, GPC2 exon 3 peptide 18 (Homo sapiens).
T9 construct: human glypican 2, 18-residue peptide no; 18 of the overlapping library (9 residues overlap), in exon 3; source: synthetic peptide (Genscript)
T9 chain: LLHPQYSFPPDYLLCLSR
The description is as above. The following applies: both partners purified.

Another assay has as its target T10, GPC2 exon 3 peptide 11 (Homo sapiens).
T10 construct: human glypican 2, 18-residue peptide no; 11 of the overlapping library (9 residues overlap), in exon 3; source: synthetic peptide (Genscript)
T10 chain: MLSVAQHSLTQLFSHSYG
The description is as above. The following applies: both partners purified.

The target in another assay is T11, GPC2 exon 3 peptide 16 (Homo sapiens).
T11 construct: human glypican 2, 18-residue peptide no; 16 of the overlapping library (9 residues overlap), in exon 3; source: synthetic peptide (Genscript)
T11 chain: LDDTLADFWAQLLERVFP
Described as above. The following applies: both partners purified.

The next assay deals with T12, GPC2 exon 3 peptide 10 (Homo sapiens).
T12 construct: human glypican 2, 18-residue peptide no; 10 of the overlapping library (9 residues overlap), in exon 3; source: synthetic peptide (Genscript)
T12 chain: RKFDEFFLEMLSVAQHSL
The description is as above. The following applies: both partners purified.

The next assay addresses T13, GPC2 exon 3 peptide 12 (Homo sapiens).
T13 construct: human glypican 2, 18-residue peptide no; 12 of the overlapping library (9 residues overlap), in exon 3; source: synthetic peptide (Genscript)
T13 chain: TQLFSHSYGRLYAQHALI
Described as above. The following applies: both partners purified.

The next assay deals with T14, GPC2 exon 3 peptide 14 (Homo sapiens).
T14 construct: human glypican 2, 18-residue peptide no; 14 of the overlapping library (9 residues overlap), in exon 3; source: synthetic peptide (Genscript)
T14 chain: FNGLFSRLRDFYGESGEG
The description is as above. The following applies: both partners purified.

In a further assay the target is T15, GPC2 exon 3 peptide 15 (Homo sapiens).
T15 construct: human glypican 2, 18-residue peptide no; 15 of the overlapping library (9 residues overlap), in exon 3; source: synthetic peptide (Genscript)
T15 chain: DFYGESGEGLDDTLADFW
The description is as above. The following applies: both partners purified.

The target of a further assay is T16, GPC2 exon 3 peptide 13 (Homo sapiens).
T16 construct: human glypican 2, 18-residue peptide no; 13 of the overlapping library (9 residues overlap), in exon 3; source: synthetic peptide (Genscript)
T16 chain: RLYAQHALIFNGLFSRLR
The description is as above. The following applies: both partners purified.

Another assay deals with T17, GPC2 exon 3 peptide 21 (Homo sapiens).
T17 construct: human glypican 2, 18-residue peptide no; 21 of the overlapping library (9 residues overlap), in exon 3; source: synthetic peptide (Genscript)
T17 chain: QPFGDSPRRLRLQITRTL
The assay is described as above. The following applies: both partners purified.

Another assay has as its target T18, GPC2 exon 3 peptide 19 (Homo sapiens).
T18 construct: human glypican 2, 18-residue peptide no; 19 of the overlapping library (9 residues overlap), in exon 3; source: synthetic peptide (Genscript)
T18 chain: PDYLLCLSRLASSTDGSL
Described as above. The following applies: both partners purified.

For assay [7], the target named is T19, recombinant human GPC2 protein (Homo sapiens, UniProt Q8N158).
T19 construct: human glypican 2 (GPC2), recombinant protein from R&D Systems; also called human glypican 2; His-tagged GPC2 protein; source: bought: R&D Systems
T19 sequence (Q8N158 24-554): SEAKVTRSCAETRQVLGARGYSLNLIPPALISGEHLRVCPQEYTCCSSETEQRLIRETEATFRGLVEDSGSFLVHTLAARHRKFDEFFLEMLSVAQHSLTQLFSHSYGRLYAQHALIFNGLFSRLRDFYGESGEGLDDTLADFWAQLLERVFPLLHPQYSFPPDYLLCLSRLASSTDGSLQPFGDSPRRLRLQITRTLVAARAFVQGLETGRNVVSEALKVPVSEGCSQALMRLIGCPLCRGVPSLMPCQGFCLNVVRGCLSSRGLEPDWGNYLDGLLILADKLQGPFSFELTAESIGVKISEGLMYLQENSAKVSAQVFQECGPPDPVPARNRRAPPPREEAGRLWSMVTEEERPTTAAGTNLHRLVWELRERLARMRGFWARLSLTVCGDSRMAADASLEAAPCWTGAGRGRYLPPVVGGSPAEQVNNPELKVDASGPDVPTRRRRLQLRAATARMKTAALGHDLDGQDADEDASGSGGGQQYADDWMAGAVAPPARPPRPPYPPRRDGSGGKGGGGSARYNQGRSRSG
As to the kind of experiment: BLI; Octet RED96; His-tagged GPC2 immobilised on Ni-NTA biosensors; association 600 s, dissociation 1800 s. The following applies: both partners purified. (In general: In BLI a coated tip is dipped into the sample, and binding shifts an interference pattern.)

The target in assay [8] is cell surface GPC2 on neuroblastoma cells (Homo sapiens, UniProt Q8N158). Briefly: cell-based or functional assay.
Sequence of cell surface GPC2 on neuroblastoma cells (Q8N158 24-554): as above
Assay [9] deals with human GPC2 stably overexpressed on G10 (A431) and F8 (IMR5) cells (Homo sapiens, UniProt Q8N158). As to the kind of experiment: cell-based or functional assay.
Sequence of human GPC2 stably overexpressed on G10 (A431) and F8 (IMR5) cells (Q8N158 24-554): as above

The term Kd denotes a measure of binding affinity in units of concentration.

T1 sequence (P51654 25-580): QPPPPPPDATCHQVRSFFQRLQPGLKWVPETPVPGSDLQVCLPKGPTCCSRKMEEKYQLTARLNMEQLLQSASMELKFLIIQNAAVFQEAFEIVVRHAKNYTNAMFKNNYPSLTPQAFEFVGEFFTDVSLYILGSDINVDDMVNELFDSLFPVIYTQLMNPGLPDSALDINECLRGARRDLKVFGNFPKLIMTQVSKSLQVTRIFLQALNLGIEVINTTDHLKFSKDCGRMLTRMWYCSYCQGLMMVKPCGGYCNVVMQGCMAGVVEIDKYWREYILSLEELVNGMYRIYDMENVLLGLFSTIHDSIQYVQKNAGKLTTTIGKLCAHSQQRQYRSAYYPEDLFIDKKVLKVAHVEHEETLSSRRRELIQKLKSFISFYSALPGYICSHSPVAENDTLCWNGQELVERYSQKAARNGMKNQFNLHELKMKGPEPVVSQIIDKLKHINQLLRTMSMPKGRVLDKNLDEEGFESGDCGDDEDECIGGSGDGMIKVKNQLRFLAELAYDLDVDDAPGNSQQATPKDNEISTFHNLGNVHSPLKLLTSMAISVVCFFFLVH
T5 sequence (Q9Y625 24-529): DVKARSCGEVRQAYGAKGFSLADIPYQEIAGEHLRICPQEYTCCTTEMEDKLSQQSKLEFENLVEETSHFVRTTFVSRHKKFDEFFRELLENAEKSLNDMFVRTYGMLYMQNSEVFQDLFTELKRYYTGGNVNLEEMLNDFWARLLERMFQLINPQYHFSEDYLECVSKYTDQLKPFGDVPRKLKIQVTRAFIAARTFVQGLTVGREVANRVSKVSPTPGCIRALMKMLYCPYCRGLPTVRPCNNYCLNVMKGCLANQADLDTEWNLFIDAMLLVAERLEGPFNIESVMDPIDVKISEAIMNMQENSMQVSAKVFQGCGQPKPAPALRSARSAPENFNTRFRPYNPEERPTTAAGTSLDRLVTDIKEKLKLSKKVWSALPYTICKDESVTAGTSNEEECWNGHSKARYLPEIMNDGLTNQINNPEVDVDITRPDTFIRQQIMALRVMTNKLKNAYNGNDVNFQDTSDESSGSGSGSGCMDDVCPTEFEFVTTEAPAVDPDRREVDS

B1: CT3 monoclonal antibody (antibody, V domains shown)
VH: EVQLQQSGPELVKPGASVKMSCKASRFTFTDYNIHWVKQSPGKTLEWIGYINPNNGDIFYKQKFNGKATLTINKSSNTAYMELRSLTSEDSAVYYCVRSSNIRYTFDRFFDVWGTGTTVTVSS
VL: ENVLTQSPAIMSASLGEKVTMSCRASSSVNYIYWYQQKSDASPKLWIYYTSNLAPGVPARFSGSGSGNSYSLTISSMEGEDAATYYCQQFSSSPSTFGTGTKLELK
notes: variable regions were cloned by 5'RACE; EM maps of the CT3 Fab/GPC2 complex deposited at wwPDB (deposition ID D_1000256119); Mouse mAb raised against the 50-residue C-terminal (exon 10) peptide of GPC2; also called CT3 mAb; source: mouse hybridoma (parental clone 2); hybridoma supernatant and purified mAb
Turning to B1, the binding result in assay [1] is recorded as “no binding (tested: 1 μg/ml of each mAb)”; in assay [2], “no binding (tested: 1 μg/ml of each mAb)”; in assay [3], “no binding (tested: 1 μg/mL of CT3)”; in assay [4] it was “no binding (tested: 1 μg/mL of CT3)”; in assay [5], “no binding (tested: 1 μg/mL of CT3)”; in assay [6], “binds”. In addition, the binding result with GPC2 exon 3 peptide 17, with GPC2 exon 3 peptide 20, with GPC2 exon 3 peptide 18, with GPC2 exon 3 peptide 11, with GPC2 exon 3 peptide 16 and with GPC2 exon 3 peptide 10 was “no binding (tested: 1 μg/ml of CT3)” each time. The binding result with GPC2 exon 3 peptide 12, in the assay with GPC2 exon 3 peptide 14, with GPC2 exon 3 peptide 15, with GPC2 exon 3 peptide 13, with GPC2 exon 3 peptide 21 and with GPC2 exon 3 peptide 19 was “no binding (tested: 1 μg/ml of CT3)” each time. For the same molecule, the Kd in assay [7] amounted to 0.5 nM. For the same molecule, the “cytotoxicity of CT3 CAR T cells (CT3 as scFv in a CAR with CD8α hinge) on NBEB cells, xCELLigence real-time analysis, E:T ratio 1:1, 25 h” value in [8] amounted to 74%. For the same molecule, the “cytotoxicity of CT3 CAR T cells (CT3 as scFv in a CAR with CD8α hinge) on SKNAS cells, xCELLigence real-time analysis, E:T ratio 1:1, 25 h” value in assay [8] came out at 43%. For the same molecule, in [8], the “lysis of NB PDX-derived cells by CT3 CAR T cells (CT3 as scFv in a 4-1BB CAR), luciferase-based killing assay, E:T ratio 25:1, 24 to 72 h of co-culture” value amounted to 80%. The “lysis of G10 and F8 cells (high GPC2) by CT3 CAR T cells (CT3 as scFv in a 4-1BB CAR), luciferase-based killing assay, 24 h, E:T ratio 3:1” value in assay [9] is roughly 70%.

Source of the values: article PMC8233664, “CAR T cells targeting tumor-associated exons of glypican 2 regress neuroblastoma in mice” (Cell Reports Medicine, 2021).
